Assay results from US20220235136A1, “METHODS AND COMPOSITIONS FOR TREATING A DISEASE OR DISORDER” (YALE UNIVERSITY, priority 2019, published 2022).

Biological target: human IGF1R on transfected CHO cells (human), P08069
Assay: flow cytometry, IGFBP7-Ig on IGF1R transfected CHO cells (CHO-WT: 3.52)
Details: remark: other sources report otherwise

Chain of human IGF1R on transfected CHO cells (human), P08069 (P08069 31-1367): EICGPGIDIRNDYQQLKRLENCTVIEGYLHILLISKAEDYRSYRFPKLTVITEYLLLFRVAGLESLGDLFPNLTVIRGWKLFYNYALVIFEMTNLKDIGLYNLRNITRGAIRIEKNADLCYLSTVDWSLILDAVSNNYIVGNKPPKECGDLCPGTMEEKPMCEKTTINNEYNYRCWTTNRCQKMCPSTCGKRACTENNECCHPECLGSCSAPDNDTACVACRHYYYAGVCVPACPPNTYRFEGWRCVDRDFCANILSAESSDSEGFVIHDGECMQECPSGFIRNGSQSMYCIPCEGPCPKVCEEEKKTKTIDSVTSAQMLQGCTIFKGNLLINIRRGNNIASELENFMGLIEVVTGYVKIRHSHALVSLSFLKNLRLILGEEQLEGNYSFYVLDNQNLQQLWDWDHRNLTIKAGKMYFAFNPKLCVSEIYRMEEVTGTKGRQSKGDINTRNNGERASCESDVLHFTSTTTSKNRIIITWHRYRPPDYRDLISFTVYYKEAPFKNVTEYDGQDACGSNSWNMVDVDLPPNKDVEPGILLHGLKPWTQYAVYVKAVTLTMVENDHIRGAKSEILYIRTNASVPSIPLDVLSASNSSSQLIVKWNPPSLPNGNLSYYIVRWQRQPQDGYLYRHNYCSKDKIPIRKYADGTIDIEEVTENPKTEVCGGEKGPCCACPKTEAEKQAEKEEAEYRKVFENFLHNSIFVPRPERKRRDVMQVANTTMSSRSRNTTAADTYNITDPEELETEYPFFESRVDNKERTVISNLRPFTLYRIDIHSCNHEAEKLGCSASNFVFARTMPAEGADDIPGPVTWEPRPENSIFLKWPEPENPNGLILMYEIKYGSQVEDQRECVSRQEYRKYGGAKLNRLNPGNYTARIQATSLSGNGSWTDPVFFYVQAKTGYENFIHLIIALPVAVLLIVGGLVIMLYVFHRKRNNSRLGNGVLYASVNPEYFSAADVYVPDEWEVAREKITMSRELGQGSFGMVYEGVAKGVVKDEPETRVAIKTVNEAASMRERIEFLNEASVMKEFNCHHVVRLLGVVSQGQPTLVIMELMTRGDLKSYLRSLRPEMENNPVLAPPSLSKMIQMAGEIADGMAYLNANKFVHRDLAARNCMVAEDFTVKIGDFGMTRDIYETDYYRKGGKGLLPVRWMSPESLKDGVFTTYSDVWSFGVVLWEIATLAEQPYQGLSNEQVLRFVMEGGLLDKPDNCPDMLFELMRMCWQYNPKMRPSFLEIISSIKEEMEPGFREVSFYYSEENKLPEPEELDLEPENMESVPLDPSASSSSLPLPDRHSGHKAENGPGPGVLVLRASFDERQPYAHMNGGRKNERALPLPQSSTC

B1: Human IGFBP7 (Fc-tag), Sino Biological, Q16270 27-282 (Fc fusion, not shown: a dimerising Fc or GST)
chain: SSSDTCGPCEPASCPPLPPLGCLLGETRDACGCCPMCARGEGEPCGGGGAGRGYCAPGMECVKSRKRRKGKAGAAAGGPGVSGVCVCKSRYPVCGSDGTTYPSGCQLRAASQRAESRGEKAITQVSKGTCEQGPSIVTPPKDIWNVTGAQVYLSCEVIGIPTPVLIWNKVKRGHYGVQRTELLPGDRDNLAIQTRGGPEKHEVTGWVLVSPLSKEDAGEYECHASNSQGQASASAKITVVDALHEIPVKKGEGAEL
number printed above the gate of the dot plot (share of cells in the gate; unit not given): 2.04
